Measurements: US20150320848A1

Experiments:
Experiment in all cases: REVEAL MHC-peptide binding assay; score relative to positive control
HLA-DR5 = biological target: HLA-DR5
HLA-DR4 = biological target: HLA-DR4
HLA-DR1 = biological target: HLA-DR1
HLA-DR2 = biological target: HLA-DR2
HLA-DR7 = biological target: HLA-DR7

Measured: binding score (% compared to the positive control)

FEGQFSINKVPGNFHVS [ERGIC1-001]
> 15%: HLA-DR5 | HLA-DR4

GNQLFRINEANQLMQ [GALNT7-001]
not listed: HLA-DR5
> 15%: all other assays above
